Columns and labels:
[1] = target: IL-12p70-L3-TM (UniProt P43432)
[2] = target: IL-12p70-L4-TM (UniProt P43432)
[3] = target: IL-12p70-L2-TM (UniProt P43432)
[4] = target: IL-12p70-L4s-TM (UniProt P43432)
[5] = target: IL-12p70-L5-TM (UniProt P43432)
Sequence of IL-12p70-L5-TM (P43432 other isoform, or with tags, fused parts or gaps): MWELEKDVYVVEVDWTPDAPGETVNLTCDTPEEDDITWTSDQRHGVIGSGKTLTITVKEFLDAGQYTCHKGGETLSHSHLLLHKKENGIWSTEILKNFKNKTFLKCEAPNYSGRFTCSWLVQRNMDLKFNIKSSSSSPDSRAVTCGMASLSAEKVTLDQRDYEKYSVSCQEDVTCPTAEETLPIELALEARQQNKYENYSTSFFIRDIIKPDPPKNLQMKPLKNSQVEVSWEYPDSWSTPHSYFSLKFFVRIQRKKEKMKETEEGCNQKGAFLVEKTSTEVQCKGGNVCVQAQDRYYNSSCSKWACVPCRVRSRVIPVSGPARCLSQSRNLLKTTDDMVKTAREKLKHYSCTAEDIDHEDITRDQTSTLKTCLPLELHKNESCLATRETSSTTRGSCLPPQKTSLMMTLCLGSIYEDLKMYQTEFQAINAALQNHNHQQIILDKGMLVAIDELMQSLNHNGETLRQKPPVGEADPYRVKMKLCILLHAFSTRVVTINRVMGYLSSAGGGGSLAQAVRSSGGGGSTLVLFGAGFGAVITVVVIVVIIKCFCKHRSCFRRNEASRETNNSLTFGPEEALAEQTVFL

Sequence of activated murine MMP2 (matrix metalloprotease 2) (chain, as listed by the source): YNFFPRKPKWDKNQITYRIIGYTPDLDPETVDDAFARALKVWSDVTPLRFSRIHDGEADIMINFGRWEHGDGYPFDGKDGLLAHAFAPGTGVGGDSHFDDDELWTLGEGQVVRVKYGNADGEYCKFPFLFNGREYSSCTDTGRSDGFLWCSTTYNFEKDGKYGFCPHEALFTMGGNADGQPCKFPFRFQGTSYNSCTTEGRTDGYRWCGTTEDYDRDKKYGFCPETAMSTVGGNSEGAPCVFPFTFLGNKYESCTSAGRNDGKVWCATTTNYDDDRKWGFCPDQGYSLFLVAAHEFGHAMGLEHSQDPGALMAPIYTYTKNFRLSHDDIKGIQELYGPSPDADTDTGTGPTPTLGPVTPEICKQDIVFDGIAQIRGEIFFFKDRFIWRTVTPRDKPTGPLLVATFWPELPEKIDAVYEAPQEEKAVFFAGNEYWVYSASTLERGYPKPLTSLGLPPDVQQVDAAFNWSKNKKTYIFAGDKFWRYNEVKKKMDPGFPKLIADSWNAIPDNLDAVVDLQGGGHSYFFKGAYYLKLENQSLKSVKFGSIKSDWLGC
Sequence of IL-12p70-L4s-TM (P43432 other isoform, or with tags, fused parts or gaps): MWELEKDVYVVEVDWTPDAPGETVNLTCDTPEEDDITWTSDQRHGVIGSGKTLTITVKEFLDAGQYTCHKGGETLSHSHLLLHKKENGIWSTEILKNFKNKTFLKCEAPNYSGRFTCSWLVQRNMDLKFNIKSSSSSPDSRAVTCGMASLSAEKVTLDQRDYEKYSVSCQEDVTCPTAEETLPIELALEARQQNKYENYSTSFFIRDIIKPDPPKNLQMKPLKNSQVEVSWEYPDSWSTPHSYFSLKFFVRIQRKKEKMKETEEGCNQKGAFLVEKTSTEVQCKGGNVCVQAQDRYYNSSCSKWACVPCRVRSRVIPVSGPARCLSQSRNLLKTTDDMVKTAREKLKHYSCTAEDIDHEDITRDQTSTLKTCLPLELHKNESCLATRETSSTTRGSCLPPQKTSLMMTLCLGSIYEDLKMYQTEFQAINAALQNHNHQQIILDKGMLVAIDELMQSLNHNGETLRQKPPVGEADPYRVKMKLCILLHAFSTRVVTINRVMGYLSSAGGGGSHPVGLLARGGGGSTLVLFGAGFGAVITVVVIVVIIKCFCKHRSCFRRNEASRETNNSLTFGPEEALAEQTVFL
Sequence of IL-12p70-L3-TM (P43432 other isoform, or with tags, fused parts or gaps): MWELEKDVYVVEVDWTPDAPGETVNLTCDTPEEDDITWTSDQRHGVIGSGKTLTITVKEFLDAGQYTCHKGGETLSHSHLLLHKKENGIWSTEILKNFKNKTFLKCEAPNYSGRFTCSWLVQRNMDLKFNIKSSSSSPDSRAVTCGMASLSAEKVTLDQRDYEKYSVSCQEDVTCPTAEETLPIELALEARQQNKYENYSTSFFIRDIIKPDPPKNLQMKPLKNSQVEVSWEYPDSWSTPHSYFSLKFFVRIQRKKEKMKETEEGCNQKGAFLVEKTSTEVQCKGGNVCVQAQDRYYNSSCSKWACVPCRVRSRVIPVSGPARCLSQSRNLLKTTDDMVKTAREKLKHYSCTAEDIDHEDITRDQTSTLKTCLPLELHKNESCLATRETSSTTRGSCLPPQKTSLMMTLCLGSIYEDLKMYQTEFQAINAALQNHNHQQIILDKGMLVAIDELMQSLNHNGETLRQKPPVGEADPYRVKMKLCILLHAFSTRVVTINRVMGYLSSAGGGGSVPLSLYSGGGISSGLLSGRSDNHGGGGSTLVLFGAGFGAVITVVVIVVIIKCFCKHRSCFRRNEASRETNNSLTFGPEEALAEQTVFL
Sequence of IL-12p70-L2-TM (P43432 other isoform, or with tags, fused parts or gaps): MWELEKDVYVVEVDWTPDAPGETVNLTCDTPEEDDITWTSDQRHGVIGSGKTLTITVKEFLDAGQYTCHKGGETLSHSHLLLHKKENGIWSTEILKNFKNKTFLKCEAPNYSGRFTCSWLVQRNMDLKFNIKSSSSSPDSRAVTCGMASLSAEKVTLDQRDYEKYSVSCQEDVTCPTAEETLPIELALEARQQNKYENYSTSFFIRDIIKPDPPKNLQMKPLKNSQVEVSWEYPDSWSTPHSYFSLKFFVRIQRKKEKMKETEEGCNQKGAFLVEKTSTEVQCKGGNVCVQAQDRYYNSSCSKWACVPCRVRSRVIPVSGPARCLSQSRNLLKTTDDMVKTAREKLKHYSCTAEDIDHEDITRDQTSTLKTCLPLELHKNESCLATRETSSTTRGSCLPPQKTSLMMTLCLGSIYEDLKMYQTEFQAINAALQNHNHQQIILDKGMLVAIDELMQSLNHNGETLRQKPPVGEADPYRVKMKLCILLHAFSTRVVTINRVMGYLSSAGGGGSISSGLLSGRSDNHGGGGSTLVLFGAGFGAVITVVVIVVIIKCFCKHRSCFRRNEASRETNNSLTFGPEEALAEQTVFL
Sequence of IL-12p70-L4-TM (P43432 other isoform, or with tags, fused parts or gaps): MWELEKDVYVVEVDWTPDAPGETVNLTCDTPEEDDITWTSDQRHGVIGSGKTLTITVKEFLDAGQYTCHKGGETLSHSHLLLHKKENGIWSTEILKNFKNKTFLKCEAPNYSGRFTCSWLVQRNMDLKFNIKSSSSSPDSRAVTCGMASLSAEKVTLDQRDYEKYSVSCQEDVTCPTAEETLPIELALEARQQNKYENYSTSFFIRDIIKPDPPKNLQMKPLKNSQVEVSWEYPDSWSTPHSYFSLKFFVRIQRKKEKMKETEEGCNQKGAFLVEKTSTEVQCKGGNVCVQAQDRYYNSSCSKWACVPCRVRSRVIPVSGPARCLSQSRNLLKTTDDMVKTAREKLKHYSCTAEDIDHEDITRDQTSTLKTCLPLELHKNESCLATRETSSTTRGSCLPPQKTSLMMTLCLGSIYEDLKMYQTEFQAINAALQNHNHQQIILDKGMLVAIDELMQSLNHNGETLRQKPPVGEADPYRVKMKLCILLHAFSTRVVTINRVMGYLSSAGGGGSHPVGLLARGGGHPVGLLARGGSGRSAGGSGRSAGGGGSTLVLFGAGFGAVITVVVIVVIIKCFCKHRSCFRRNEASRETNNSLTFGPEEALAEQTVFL

“activated murine MMP2 (matrix metalloprotease 2)” was tested, and the “release of cleaved (therefore soluble) IL-12p70 into the supernatant, ELISA” value (“release of cleaved” for short) [1] was “a time-dependent release of IL-12p70 was observed”, the “release of cleaved” value [2] was “a time-dependent release of IL-12p70 was observed” and the “release of cleaved” value [3] was “a time-dependent release of IL-12p70 was observed”. The “release of cleaved” value [4] was “a time-dependent release of IL-12p70 was observed” and the “release of cleaved” value [5] was “a time-dependent release of IL-12p70 was observed”.

— patent publication US20260152536
